The results in this text go back to patent US20100075907A1, “NEUROMEDIN U RECEPTOR AGONISTS AND USES THEREOF” (priority 2006, published 2010).

*: point of attachment. Palmitoyl = CCCCCCCCCCCCCCCC(=O)*

Common to all, as to format: cell-based
Experiment [1] concerns the target T1, hNMUR1 (Homo sapiens, UniProt Q9HB89).
T1 sequence (Q9HB89 1-426): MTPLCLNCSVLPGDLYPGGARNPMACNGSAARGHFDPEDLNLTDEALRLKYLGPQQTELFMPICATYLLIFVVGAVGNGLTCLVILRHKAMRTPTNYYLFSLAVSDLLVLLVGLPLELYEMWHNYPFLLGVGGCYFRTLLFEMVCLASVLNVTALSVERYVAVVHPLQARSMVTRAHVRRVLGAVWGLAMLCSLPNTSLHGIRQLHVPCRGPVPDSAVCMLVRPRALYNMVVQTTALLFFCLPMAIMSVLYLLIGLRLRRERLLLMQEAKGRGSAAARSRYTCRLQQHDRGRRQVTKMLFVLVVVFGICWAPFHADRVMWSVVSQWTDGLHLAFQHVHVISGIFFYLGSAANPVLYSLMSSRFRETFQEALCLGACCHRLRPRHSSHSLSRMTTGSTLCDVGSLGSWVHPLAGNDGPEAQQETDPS
Kind of experiment: FLIPR calcium mobilization assay, human NMUR1. Further details: expressed in transfected cells; host or cells: FLP-In CHO or HEK-293 FLP-In cells (pcDNA5); HEK-293/aeq17 lines (pIRES-puro) were also made. The following applies: human NMUR1. (Calcium assays in cells follow changes in intracellular calcium, usually with a dye or a luminescent sensor.)

For experiment [2], the target named is T2, rat NMUR1-ATG (Rattus norvegicus, UniProt Q9JJI5).
T2 sequence (Q9JJI5 1-425): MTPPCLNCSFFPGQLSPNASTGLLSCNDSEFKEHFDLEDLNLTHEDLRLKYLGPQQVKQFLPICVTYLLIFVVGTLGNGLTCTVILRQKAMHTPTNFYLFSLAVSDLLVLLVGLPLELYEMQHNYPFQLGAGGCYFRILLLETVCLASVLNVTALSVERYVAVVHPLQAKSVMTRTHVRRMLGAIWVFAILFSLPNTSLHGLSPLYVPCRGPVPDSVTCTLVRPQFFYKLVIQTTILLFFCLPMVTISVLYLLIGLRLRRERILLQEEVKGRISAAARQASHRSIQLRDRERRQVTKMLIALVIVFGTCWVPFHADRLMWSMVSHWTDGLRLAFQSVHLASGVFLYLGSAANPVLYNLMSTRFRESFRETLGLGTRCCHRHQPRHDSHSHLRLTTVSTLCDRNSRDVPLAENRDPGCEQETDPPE
Kind of experiment: FLIPR calcium mobilization assay, rat NMUR1-ATG. Further details: expressed in transfected cells; host or cells: FLP-In CHO or HEK-293 FLP-In cells (pcDNA5). The note with it: rat NMUR1-ATG. An excerpt: (§1) Human, mouse or rat cDNAs encoding NMUR1 or NMUR2 (as described in Howard et al. Nature 406: 70-74 (2000) were subcloned in pcDNA5 (Invitrogen) and transfected into FLP-In CHO cells and HEK-293 FLP-In cells purchased from Invitrogen (Carlsbad, Calif.) using lipofectamine (Invitrogen). The Flp-In system allows integration and expression of a particular gene of interest at a specific genomic location utilizing the Flp recombinase from yeast. The transfected cells were selected by growth in medium containing 200 μg/mL hygromycin (Invitrogen). Populations were frozen at early passage numbers, and these stocks were used for further studies. Stable clones that expressed the mRNAs were identified functionally by FLIPR as well as by RT-PCR. […] Two different rodent NMUR1 cell lines were thus generated: one with the codon as predicted from the genomic databases and another cell line with an engineered methionine (ATG) as the start codon. Additionally, stable cell lines expressing the human receptors were generated in HEK-293/aeq17 cells which stably express the aequorin gene under the CMV promoter. The human NMUR2 cDNA was cloned into pcDNA3.1 and human NMUR1 was subcloned into pIRES-puro (Clontech, Mountain View, Calif.), after transfection cells were selected in media containing G418 and either hygromycin (NMUR2) or puromycin (NMUR1).
(§2) The NMU receptors signal primarily through Gαq/11 proteins; therefore calcium mobilization assays can be utilized for functional activity.
(§3) Stable cell lines expressing human and or rodent NMUR1 or human NMUR2 receptors were plated at a density of 12,000 cells per well overnight on poly-lysine coated 384-well black-walled plates. The following day, the media was removed from the plates and the cells were subsequently loaded with Fluo-3 (Molecular Probes), a calcium sensitive dye, diluted in FLIPR buffer (1× Hank's buffered saline containing 20 mM HEPES, 0.1% BSA, 2.5 mM probenecid (Sigma) and 1.6 mM TR40). All reagents are from Invitrogen unless otherwise noted. Peptide stocks were resuspended in DMSO at a stock concentration of 2 mM and diluted in FLIPR buffer on the day of the experiment to a 4 μM working stock solution.
(§4) After a 90 minute incubation at room-temperature, cell plates were loaded onto a FLIPR (Molecular Devices) to monitor cellular fluorescence (excitation=488 nm; emission=540 nm) before and after compound/peptide addition. Eight to twelve point dose responses were tested on NMUR-expressing cell lines using FLIPR with 1 μM peptide as the highest dose. The response after peptide addition was taken as the maximum fluorescence units minus the fluorescence immediately prior to stimulation for each well. EC50 values were calculated using GraphPad Prism (San Diego, Calif.) software.
(§5) In vitro responses of Neuromedin U receptor agonists (NMU1 to NMU25) in the FLIPR assay for human (Table 3), mouse (Table 4) and rat (Table 5) NMUR1 and NMUR2. EC50s are reported in nM values. Percent activity refers to the maximum response at 1 μM compared to the hNMU-25 response at the same concentration. NT=not tested.

For experiment [3], the target named is mouse NMUR2 (Mus musculus, UniProt Q8BZ39). Nature of the experiment: FLIPR calcium mobilization assay, mouse NMUR2. Also on record: expressed in transfected cells; host or cells: FLP-In CHO or HEK-293 FLP-In cells (pcDNA5). The note with it: FLIPR, mouse NMUR2.
Sequence of mouse NMUR2 (Q8BZ39 whole entry): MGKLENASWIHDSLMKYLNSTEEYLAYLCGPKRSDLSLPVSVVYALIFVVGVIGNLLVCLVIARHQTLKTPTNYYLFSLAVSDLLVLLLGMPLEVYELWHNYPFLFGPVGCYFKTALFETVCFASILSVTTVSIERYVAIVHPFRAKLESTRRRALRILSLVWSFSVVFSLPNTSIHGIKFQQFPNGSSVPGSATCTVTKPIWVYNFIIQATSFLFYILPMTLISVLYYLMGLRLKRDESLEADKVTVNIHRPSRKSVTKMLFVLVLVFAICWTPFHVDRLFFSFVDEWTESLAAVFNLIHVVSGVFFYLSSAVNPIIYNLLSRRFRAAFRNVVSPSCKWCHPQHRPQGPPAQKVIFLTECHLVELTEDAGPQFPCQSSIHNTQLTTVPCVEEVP
Text: as §1, §2, §3, §4, §5

“Pam-C2FRVDEEFQSPFASQSRGYFLFRPRN-CONH2 ({Palmitoyl-C(PEG 40 kDa)}-FRVDEEFQSPFASQSRGYFLFRPRN-NH2) [NMU25, Pam = palmitoyl; C2 = Cys(PEG)240 kDa]”: the EC50 in experiment [1] (FLIPR) is 168 nM; in experiment [2] (FLIPR) it was 20.1 nM; in experiment [3], 18.8 nM. Also, the “% Activity” value in experiment [1] (maximum response at 1 μM compared to hNMU-25 response at same concentration) is on record as 83.0%; in experiment [2] (maximum response at 1 μM compared to hNMU-25) it was 99.6%.

One may read the EC50 as the midpoint of the concentration-response curve.
